Measured values taken from US20020143164A1, “Ras activator nucleic acid molecules, polypeptides and methods of use” (priority 1999, published 2002).

Experiments:
Rat 2 fibroblasts = test: Transformation assay (foci formation); type: cell-based; settings: transient transfection, cultured three weeks
Experimental: Transformation assays were performed using Rat 2 fibroblasts, a suitable cell type for this assay. Rat 2 cells were transiently transfected with empty vector, GRF4 construct, or mutant RasV12 construct (a transforming form of Ras used as a positive control). After transfection, cells were cultured over a period of three weeks with routine changes of media, and were routinely examined for morphology changes under a light microscope.

Rap1 = Rap1 activation assay in living cells (GST-RalGDS-RBD pull-down); type: cell-based, human; settings: HEK-293T cells, via CDC25 domain
Experimental: (§1) HEK-293T cells were transfected as above, serum starved overnight and then subjected to various treatments, as described in the text. Cells were lysed with lysis buffer (25 mM Hepes, pH 7.5, 150 mM NaCl, 1% NP-40, 0.25% Na deoxycholate, 10% glycerol, 25 mM NaF, 10 mM MgCl2, 1 mM EDTA, 1 mM NaVO4, 10 mg/ml leupeptin, 10 mg/ml aprotinin, 250 mM PMSF) and the level of Ras.GTP or Rap. GTP in the lysates was determined using activation specific probes as described. Briefly, to determined the levels of active Ras (Ras-GTP) in cell, sepharose-bound GST fusion protein of the Ras-binding domain (RBD) of Raf-1 (GST-Raf1-RBD; Upstate Biotechnology Inc.) was used to precipitate Ras-GTP from cell lysates, and the amount of Ras-GTP determined by immunoblotting with anti Ras antibodies (Quality Biotech). Similarly, to determine the level of Rap1-GTP in cell lysates, sepharose-bound GST fusion proteins of the Rap1-binding domain of RaIGDS (GST-RaIGDS-RBD) were used to precipitate Rap1-GTP, which was then detected on a Western blot using anti-Rap1 antibodies (Transduction Lab).

Ras [1] = test: Ras activation assay in living cells, GRF4 and deletion mutants expressed in HEK-293T cells; type: cell-based, human; settings: HEK-293T cells, no cNMP stimulation
Experimental: HEK-293T cells were transfected with vector alone, GRF4 (WT), GRF4 lacking its cNMP-BD (ΔcNMP-BD) or its CDC25 domain (ΔCDC25), and then treated (or not) with 8-Br-cAMP. Cell lysates were then incubated with GST-Raf1-RBD to precipitate active Ras, and immunobloited with anti Ras antibodies as above (upper panel). Lower panels are controls for total endogenous Ras and transfected GRF4 or its mutants.
Flag, HA or myc tags was added to the N-terminus of full length GRF4 using PCR, and subcloned into the mammalian expression vector pCMV5 (Invitrogen). Mutants GRF4 with deletion of the CDC25 domain (residue 711-1007, GRF4DCDC25 or DCDC25 for short), the cNMP-BD (residue 134-254, DcNMP-BD), the PLPF motif in the PDZ domain (residue 396-399, -PLPF), or bearing mutations in the PDZ-binding motif (SAV to AAA), were generated using PCR. The GST-GRF4-cNMP-BD (residue 101-303) and GST-Carboxy-terminus (residue 1348-1499) were PCR-generated and cloned into pGEX-2T ( Pharmacia). The latter construct was used to generate a fusion protein (GST-GRF4C terminus) which was used to immunize rabbits for the generation of polyclonal anti GRF4 antibodies.
as §1, with “Cells were lysed with lysis buffer (25 mM Hepes, pH 7.5, 150 mM NaCl, 1% NP-40, 0.25% Na deoxycholate, 10% glycerol, 25 mM NaF, 10 mM MgCl2, 1 mM EDTA, 1 mM NaVO4, 10 mg/ml leupeptin, 10 mg/ml aprotinin, 250 mM PMSF) and the level of Ras.GTP or Rap.” left out

Ras [2] = test: In vitro pull-down of GRF4 with GST-Ras of different nucleotide-bound states; type: binding; settings: lysates of 293T cells with Flag-tagged GRF4, GST-Ras beads
Source text: Beads were washed and resolved on SDS-PAGE and subsequently immunoblofted with anti-Flag antibodies to detect Flag-tagged GRF4. […] However, it bound to Ras differentially, depending on the nucleotide-bound states of Ras.

GRF4-cNMP-BD = target: T1, GRF4-cNMP-BD (Homo sapiens, UniProt Q9Y4G8); test: cAMP-agarose binding assay; settings: cAMP agarose beads, anti GRF4 immunoblot
T1 construct: The GST-GRF4-cNMP-BD (residue 101-303); made in house
T1 sequence (Q9Y4G8 101-303): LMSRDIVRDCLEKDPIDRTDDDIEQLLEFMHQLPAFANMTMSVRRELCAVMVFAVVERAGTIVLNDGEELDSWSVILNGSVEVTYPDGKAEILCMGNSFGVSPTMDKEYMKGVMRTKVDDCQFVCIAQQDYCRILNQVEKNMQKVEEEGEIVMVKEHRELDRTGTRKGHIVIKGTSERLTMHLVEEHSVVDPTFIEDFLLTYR
Experimental: Right and left panels in (b) represent two separate experiments.
Following extensive washes in HNTG (20 mM Hepes, pH 7.5, 150 mM NaCl, 0.1% Triton ×100, 10% Glycerol) proteins were eluted off beads with sample buffer, separated on SDS-PAGE and immunoblotted with either anti GST antibodies for the in vitro binding experiments, or with anti GRF4 antibodies for the pull down experiments.

Ras [3] = test: In vitro GEF assay (32P-α-GTP binding to Ras); type: biochemical
Experimental: Full length (GRF4) or CDC25-deleted (ΔCDC25) GRF4, or GRF2, each Flag-tagged, were immunoprecipitated from transfected Hek-293T cells using anti Flag antibodies. Equal amounts of immunoprecipitates were washed with GEF lysis buffer, equilibrated with GEF assay buffer and incubated with 32P-α-GTP (diluted in cold GTP) plus 100 ng of Ras for 30 min. Bound and unbound radiolabelled GTP were then separated by filtration, and the amount of bound GTP determined by scintillation counting, as detailed in the Method section. Fold Ras activation was compared to the activation of Ras in the absence of GRFs (which was set to 1).
GRF4 has a RasGRF(GEF) activity/function. To show its GEF activity, we performed in-vitro GEF assays. Briefly, GST-Ras was added alone (tubes 1 and 2) or along with GST-CDC25, or immunoprecipitated full-length of GRF4 (tubes 3 and 4). All tubes contained assay mixture including cold GTP and P32 alpha GTP. The exchange reactions were stopped at the indicated times. The stopped reaction mixtures were passed through nitrocellulose filters which were then washed with stop buffer to separate bound and unbound nucleotides. Filters were dried and then quantified by scintillation counting to determine bound CPM. The labeled nucleotides trapped on the washed filters were assumed to be Ras-associated. The difference in bound CPM over 30 minute period was determined for reactions where GST-Ras was added alone (it is the difference in bound CPM between tubes 1 and 2) and where GST-Ras was added with a GEF (it is the difference in bound CPM between tubes 3 and 4).

B1: GRF4: Ras guanine nucleotide exchange factor polypeptide, SEQ ID NO: 2, 1499 amino acids (protein, listed as Homo sapiens)
chain: MKPLAIPANHGVMGQQEKHSLPADFTKLHLTDSLHPQVTHVSSSHSGCSITSDSGSSSLSDIYQATESEAGDMDLSGLPETAVDSEDDDDEEDIERASDPLMSRDIVRDCLEKDPIDRTDDDIEQLLEFMHQLPAFANMTMSVRRELCAVMVFAVVERAGTIVLNDGEELDSWSVILNGSVEVTYPDGKAEILCMGNSFGVSPTMDKEYMKGVMRTKVDDCQFVCIAQQDYCRILNQVEKNMQKVEEEGEIVMVKEHRELDRTGTRKGHIVIKGTSERLTMHLVEEHSVVDPTFIEDFLLTYRTFLSSPMEVGKKLLEWFNDPSLRDKVTRVVLLWVNNHFNDFEGDPAMTRFLEEFENNLEREKMGGHLRLLNIACAAKAKRRLMTLTKPSREAPLPFILLGGSEKGFGIFVDSVDSGSKATEAGLKRGDQILEVNGQNFENIQLSKAMEILRNNTHLSITVKTNLFVFKELLTRLSEEKRNGAPHLPKIGDIKKASRYSIPDLAVDVEQVIGLEKVNKKSKANTVGGRNKLKKILDKTRISILPQKPYNDIGIGQSQDDSIVGLRQTKHIPTALPVSGTLSSSNPDLLQSHHRILDFSATPDLPDQVLRVFKADQQSRYIMISKDTTAKEVVIQAIREFAVTATPDQYSLCEVSVTPEGVIKQRRLPDQLSKLADRIQLSGRYYLKNNMETETLCSDEDAQELLRESQISLLQLSTVEVATQLSMRNFELFRNIEPTEYIDDLFKLRSKTSCANLKRFEEVINQETFWVASEILRETNQLKRMKIIKHFIKIALHCRECKNFNSMFAIISGLNLAPVARLRTTWEKLPNKYEKLFQDLQDLFDPSRNMAKYRNVLNSQNLQPPIIPLFPVIKKDLTFLHEGNDSKVDGLVNFEKLRMIAKEIRHVGRMASVNMDPALMFRTRKKKWRSLGSLSQGSTNATVLDVAQTGGHKKRVRRSSFLNAKKLYEDAQMARKVKQYLSNLELEMDEESLQTLSLQCEPATNTLPKNPGDKKPVKSETSPVAPRAGSQQKAQSLPQPQQQPPPAHKINQGLQVPAVSLYPSRKKVPVKDLPPFGINSPQALKKILSLSEEGSLERHKKQAEDTISNASSQLSSPPTSPQSSPRKGYTLAPSGTVDNFSDSGHSEISSRSSIVSNSSFDSVPVSLHDERRQRHSVSIVETNLGMGRMERRTMIEPDQYSLGSYAPMSEGRGLYATATVISSPSTEELSQDQGDRASLDAADSGRGSWTSCSSGSHDNIQTIQHQRSWETLPFGHTHFDYSGDPAGLWASSSHMDQIMFSDHSTKYNRQNQSRESLEQAQSRASWASSTGYWGEDSEGDTGTIKRRGGKDVSIEAESSSLTSVTTEETKPVPMPAHIAVASSTTKGLIARKEGRYREPPPTPPGYIGIPITDFPEGHSHPARKPPDYNVALQRSRMVARSSDTAGPSSVQQPHGHPTSSRPVNKPQWHKPNESDPRLAPYQSQGFSTEEDEDEQVSAV
Rat 2 fibroblasts
  Foci formation / transformed phenotype of transfected cells: induced foci formation
Rap1
  Activation of Rap1 in cells: mediates activation of Rap1
Ras [1]
  Activation of endogenous Ras by heterologous expression: weak activation
Ras [2]
  Binding to EDTA-treated Ras (nucleotide-free): bound strongly
  Binding to Ras-GDP: bound weakly
  Binding to Ras-GTP: bound strongly
GRF4-cNMP-BD
  Precipitation by immobilized cAMP from lysates of expressing HEK-293T cells: able to precipitate
Ras [3]
  In vitro GEF activity on Ras: active on Ras
Ras [3]; immunoprecipitated Flag-tagged protein, 100 ng Ras, 30 min
  Fold Ras activation in vitro (activation without GRFs set to 1): ~2.9 fold
